These results are taken from patent US9364412B2, “Electrostatically controlled hydrogels” (University of Utah Research Foundation, priority 2005, dated 2016).

A short description of series [1]: Solubility of peptide in buffer (observation). The class given is physicochemical.
Series [2] can be described thus: Salt-induced gelation (NaCl added to peptide solution). The format is physicochemical. As to conditions: for final NaCl concentration for salt-induced gelation: peptides dialyzed in 30 mM buffer, pH 6.0. The method, then: For pH-induced gelation, dialyzed peptide solutions in vials were exposed to vapors of acetic acid (acid-induced gelation) or ammonium hydroxide (base-induced gelation). […] For salt-induced gelation, saturated sodium chloride solution was added into the dialyzed stock peptide solution so that the final peptide concentration in the hydrogel was 1 wt %. For mixing-induced gelation, dialyzed peptide solutions were mixed at 1:1 weight ratio such that the final total peptide concentration was 1 wt %.
The salt concentration necessary to induce gelation was quite high as indicated by FIG. 2. All peptides were dialyzed in 30 mM buffer and needed a much higher concentration to trigger hydrogelation.

Series [3] concerns the target T1, SEQ ID NO 9, Acetyl-EWEAEAEAEA-amide (negatively charged module).
T1 construct: also called EAW10
T1 peptide: Ac-EWEAEAEAEA-NH2
The series is described as follows: small-angle X-ray scattering of the mixed peptide pair. Here is the method: (§1) A small-angle x-ray scattering instrument was used for measurements at 25° C. This instrument has a slit geometry and all analyses were corrected for this. The angular dependence of the scattering of x-rays from particles in a solvent has the form:
(§2) Transmission electron microscopic (TEM) images of all hydrogels show the formation of fibrous network (FIG. 20). However, the drying step involved in the sample preparation for TEM might cause peptide fibers to aggregate further, giving rise to very heterogeneous samples that were difficult to characterize accurately in terms of fiber thickness, estimated very approximately as ~30 nm (diameter). Therefore, small angle X-ray scattering (SAXS) was used to probe the hydrated fibrous network with minimal perturbations to the samples. The measured scattering intensity (I(Q)) increased over time for each of the biomaterials, indicative of the formation of aggregates and consistent with a growing fibril networks (FIG. 18). […] The trend of the gelation kinetics is evident in FIG. 18, and also in the summary of the structural parameters that can be determined using P(r) analysis (Table 4). The kinetics of the formation of these structures is distinctive among the peptide pairs, with the SEQ ID NO 10:SEQ ID NO 11 pair reaching equilibrium most rapidly (between 15 min and 1 h) and the SEQ ID NO 9:SEQ ID NO 8 pair taking more than 11 hours before its small-angle scattering pattern becomes evident. The overall gelation kinetics monitored by SAXS follows a clear order of SEQ ID NO 10:SEQ ID NO 11>SEQ ID NO 9:SEQ ID NO 11>SEQ ID NO 10:SEQ ID NO 8>SEQ ID NO 9:SEQ ID NO 8. The order of gelation kinetics can be directly correlated to the total electrostatic and hydrophobic interactions among the oligopeptide pairs, which is highest for the SEQ ID NO 10:SEQ ID NO 11 pair and least for the SEQ ID NO 9:SEQ ID NO 8 pair. Among the two unequal chain length pairs, kinetics of SEQ ID NO 9:SEQ ID NO 11 (13 charged and 12 apolar amino acids) was faster than SEQ ID NO 10:SEQ ID NO 8 (12 charged and 13 apolar amino acids).

Series [4] addresses T2, SEQ ID NO 10, Acetyl-WEAEAEAEAEAEAEA-amide (negatively charged module).
T2 construct: Synthetic designed 15-mer
T2 peptide: Ac-WEAEAEAEAEAEAEA-NH2
Described as above. Here is the method: as §1, §2

For series [5], the target named is T3, SEQ ID NO 1, Acetyl-EWEVEVEVEV-amide (negatively charged module).
T3 construct: Synthetic designed decapeptide; also called Acetyl-EW(EV)4-amide; negatively-charged peptide module
T3 peptide: Ac-EWEVEVEVEV-NH2
Description: mixing-induced co-assembly into hydrogel, dynamic rheometry.

Series [6] addresses T4, SEQ ID NO 5.
T4 construct: All peptides were made on Rink Amide resin; also called member of the serine pair
T4 peptide: EWESESESES-NH2
The description is as above.

Where no end group is shown, it is not given here.

“Ac-WKVKVKVKVK-NH2 [SEQ ID NO 3, Acetyl-WKVKVKVKVK-amide]”: the “solubility at pH 7” value in series [1] was “did not appear to be high enough”.

For “Acetyl-EWEVEVEVEV-amide (Ac-EWEVEVEVEV-NH2) [SEQ ID NO 1, negatively charged peptide module]”, in series [2] (1.5 M salt concentration), the “state of sample at 1.5 M NaCl” value is “still a viscous solution”. In series [2], the “final NaCl concentration for salt-induced gelation” value was determined as 3 M.

For the molecule “Acetyl-KWKVKVKVKVKVKVK-amide (Ac-KWKVKVKVKVKVKVK-NH2) [SEQ ID NO 2, positively charged peptide module]”, the “final NaCl concentration for salt-induced gelation” value in series [2] was 1.5 M.

As to Ac-WKAKAKAKAK-NH2 (also called KAW10) [SEQ ID NO 8, Acetyl-WKAKAKAKAK-amide (positively charged module)], the binding result in series [3] and in series [4] was “binds” throughout.

As to Ac-KWKVKVKVKVKVKVK-NH2 (Synthetic designed 15-mer) [SEQ ID NO 2, Acetyl-KWKVKVKVKVKVKVK-amide (positively charged module)], the binding result in series [5] is given as “binds”.

On to Ac-KWKAKAKAKAKAKAK-NH2 (Synthetic designed 15-mer) [SEQ ID NO 11, Acetyl-KWKAKAKAKAKAKAK-amide (positively charged module)], for which the binding result in series [3] and in series [4] was “binds” each time.

B1: SEQ ID NO 4 (peptide)
peptide: WKSKSKSKSK-NH2
notes: All peptides were made on Rink Amide resin; also called member of the serine pair
Turning to B1, the binding result in series [6] is “binds”.

B2: SEQ ID NO 3, Acetyl-WKVKVKVKVK-amide (positively charged module) (peptide)
peptide: Ac-WKVKVKVKVK-NH2
notes: Synthetic designed decapeptide; also called Acetyl-WK(VK)4-amide; positively-charged peptide module
Regarding B2, the binding result in series [5] is “binds”.
